Laboratory results published in article PMC4958273, “Expression and preliminary characterization of human MICU2” (Biology Open, 2016).

Biological target: the molecule itself
Test: SEC-MALS; Ca2+-bound condition (5 mM CaCl2); protein at 0.5-2.5 mg/ml, 200 µl injected, KW-G and KW-803 columns, 0.5 ml/min; monomer to dimer

B1: MICU2-NΔ84-CΔ28 (domain or fragment, human, UniProt Q8IYU8 84-406, looked up)
chain: SLRKQRFMQFSSLEHEGEYYMTPRDFLFSVMFEQMERKTSVKKLTKKDIEDTLSGIQTAGCGSTFFRDLGDKGLISYTEYLFLLTILTKPHSGFHVAFKMLDTDGNEMIEKREFFKLQKIISKQDDLMTVKTNETGYQEAIVKEPEINTTLQMRFFGKRGQRKLHYKEFRRFMENLQTEIQEMEFLQFSKGLSFMRKEDFAEWLLFFTNTENKDIYWKNVREKLSAGESISLDEFKSFCHFTTHLEDFAIAMQMFSLAHRPVRLAEFKRAVKVATGQELSNNILDTVFKIFDLDGDECLSHEEFLGVLKNRMHRGLWVPQHQS
notes: human MICU2 (BC031089.1), N-terminal deletion starting at amino acid 84, the C-terminal 28 amino acids deleted; lacks Cys413; Predicted molecular weight ~40 kDa; source: E. coli BL21 (DE3); purified (Ni-NTA, SEC) for MALLS; in lysate (cells mixed and sonicated together) for the pull-down; not shown: His-tag, N-terminal, kept
stoichiometry N: 2
